According to patent publication EP4659811A1 (Université de Strasbourg, dated 2025):
Residue numbers refer to the chain shown, from its start.

B1: antibody B7P3 (antibody, V domains shown)
VH: EVQLVESGGGVVQPGRSLRLSCAASGFTFSNFGMHWVRQPPGKGLEWVAVISYDGSDKFYADSVKGRFTISRDNFKNTLYVQMNSLRAEDTAVYYCAKDRVRTKYYYDHSGPFDYWGRGTLVTVSS
VL: SYVLTQPPSVSVAPGQTARIACGGNNIGSKSVHWYQQRPGQAPVLVVYDDDDRPSGIPERFSGSNSGNTATLTISRVEAGDEADYFCQVWMTNSDRPVFGGGTKLTVL
B2: antibody G7P3 (antibody, V domains shown)
VH: EVQLVESGGGLVQPGGSLRLSCAASGFSFGSYSMNWVRQAPGKGLEWVSHISSGSSSIYYADSVKGRFTISRDSVKNSLYLQMNNLRAEDTAVYYCARGWTGYDAFDIWGQGTMVTVSS
VL: DIQMTQSPSSLSASVGDRVTITCRASQVISNYLAWYQEKPGKVPKLLIYAASTLQSGVPSRFSGSGTGTDFTLTIRSLQPEDVATYYCQKYNNAPLTFGGGTKVEIK
B3: antibody E8P5 (antibody, V domains shown)
VH: B2 VH with Q13H, S28R, S31T, Y95F
VL: B2 VL with K42E, R76S
B4: antibody E10P5 (antibody, V domains shown)
VH: QVQLQESGPGLVKPSQTLSLTCSVSGGSISSGNYYWSWIRQPAGKGLEWIGRIYTSGNTNYNPSLKSRVTMSVDTSKNQFSLKLSSVTATDTAVYYCARVRRDGYNAFDYWGQGTLVTVSS
VL: SYELTQPPSVSVSPGQTASIDCSGHNLGDKFTCWYQQKPGQSPVLVIYQDSKRPSGIPERFSGSNSGNTATLTISGTQAMDEADYYCQAWDSDTLYVFGTGTTVTVL
B5: antibody B3P3 (antibody, V domains shown)
VH: EVQLVESGGGVVQPGRSLRLSCVTSGFTFESYGIHWVRQAPGKGLEWVAVISNDGSIEDYAGSVKGRFTISGDKAKNTVYLQVNSLRPDDTAVYYCAKDAVGITGGSLYYSYGMDVWGQGTTVTVSS
VL: DIQMTQSPSPLSAFIGGRVTITCRASQTIKNYLNWYQQKPGEAPKLLIYTASTLQNGVPSRFSGSRSGTDFTLTITSLQPEDFATYYCQQSYSAPYSFGQGTKLEIK
B6: antibody B10P5 (antibody, V domains shown)
VH: EVQLVESGGGLVQPGGSLRLSCSASGFTFSTYTMNWVRQAPGKGLDWVSYISSRSTSIYYADSVKGRFTISRDNAKNSLYLHMTSLRAEDTAVYYCVRDRGYYGSNWFDSWGQGTLVTVSS
VL: QSALTQPRSVSGSPGQSVTISCTGTSSDVGNYNYVSWYQQHPGKAPRLMISDVTKRPSGVPDRFSGSKSGNTASLTISGLQAEDEGDYYCCAYAGSYTLVFGGGTKLTVL
B7: antibody C4P7 (antibody, V domains shown)
VH: EVQLLESGGGLVQPGGSLRLSCAASGFTFSSYAMSWVRQAPGKGLEWVSSLTGSGGSTYYRDSVKGRFTIFRDNSKKTLYMQMNSLRAEDTAVYYCAKEGAYSYDFWYFDLWGRGTLVTVSS
VL: EIVLTQSPGTLSLSPGERATLSCRASQTVSGNYLAWYQQKPGQSPSLLIYGASSRATGIPDRFTGSGSGTDFTLTISRLEPADFAVYYCQQYGRPLTFGGGTKVEIK
B8: antibody C10P8 (antibody, V domains shown)
VH: QVQLQESGPGLVKPSQTLSLTCTVSGGSISSGRYYWSWIRQPAGKGLEWIGRVYFSGSTNYNPSLKNRVTLSVDTSKNQFSLKLSSVIAADTAVYYCARAVRDYGDSYSFDYWGQGTLVTVSS
VL: QSALTQPASVSGSPGQSITISCTGSSSDIGGYNYVSWYQVHPGKAPHLKIYDVVNRPSGVSNRFPGSKSGNTASLTISGLLADDEAYYYCCSYSIRGTPVFGGGTKLTVL

Molecular target: VP1 capsid protein on BKV pseudovirions of genotype Ia (BK-D; JF894228) (BK virus genotype Ia (BK-D))
Assay: cell-based or functional assay

Going from B1 to B2, the “Neutralization PSV IC50” value rises from 0.4 ng/mL to 0.8 ng/mL (2-fold).

First: B3
Second: B4
The “Neutralization PSV IC50” value of the first is 3.2-fold higher: 1.3 ng/mL for the first, 0.4 ng/mL for the second.

B5 and B6 cannot be ordered by “Neutralization PSV IC50” value: over 50000 ng/mL for the first, over 50000 ng/mL for the second.

Going from B7 to B8, the “Neutralization PSV IC50” value rises from 494 ng/mL to over 12500 ng/mL.

Molecular target: VP1 capsid protein on BKV pseudovirions of genotype II (GBR-12; AB263920) (BK virus genotype II (GBR-12))
Assay: cell-based or functional assay

First: B1
Second: B2
The “Neutralization PSV IC50” value of the first is 640-fold higher: 3.43 µg/mL for the first, 0.0054 µg/mL for the second.

First: B3
Second: B4
The “Neutralization PSV IC50” value of the first is 11-fold lower: 0.004 µg/mL for the first, 0.0433 µg/mL for the second.

B5 and B6 cannot be ordered by “Neutralization PSV IC50” value: over 50 µg/mL for the first, over 50 µg/mL for the second.

First: B7
Second: B8
The “Neutralization PSV IC50” value of the first is lower: 0.0609 µg/mL for the first, over 12.5 µg/mL for the second.

Molecular target: VP1 capsid protein on BKV pseudovirions of genotype IVc2 (A-66H; AB369093) (BK virus genotype IVc2 (A-66H))
Assay: cell-based or functional assay

B1 and B2 cannot be ordered by “Neutralization PSV IC50” value: over 50 µg/mL for the first, over 50 µg/mL for the second.

B3 and B4 cannot be ordered by “Neutralization PSV IC50” value: over 50 µg/mL for the first, over 50 µg/mL for the second.

B5 and B6 cannot be ordered by “Neutralization PSV IC50” value: over 50 µg/mL for the first, over 50 µg/mL for the second.

B7 and B8 cannot be ordered by “Neutralization PSV IC50” value: over 3.12 µg/mL for the first, over 12.5 µg/mL for the second.
